The term stoichiometry N denotes the number of molecules, sites or subunits per partner or assembly.

This note sets out measurements from article PMC6800368, “Rotational symmetry of the structured Chip/LDB-SSDP core module of the Wnt enhanceosome” (Proceedings of the National Academy of Sciences of the …, 2019).

Values joined by “and” are separate entries in the source; they are usually repeats but may differ in a detail not shown here. Equal values may be shown once.

Data set [1] has as its target Lip-SSDP_(1–92) Mα3 (F66E L69A Y70A) (Drosophila) (UniProt Q9VEB9). As to the kind of experiment: SEC-MALS; MBP-LCCD_(Chip) (WT or Mα6) coexpressed with Lip-SSDP_(1–92) (WT, V65K, Mα3 or ML), purified; Superdex-200 10/300, 2 mg/mL, PBS, 1 mM DTT; PAGE of SEC fractions. In general terms: Size exclusion chromatography separates by hydrodynamic size, large species first.

Data set [2] deals with the molecule itself. As to the kind of experiment: crystal structure; DD (XLdb1 20-200) bound to a DARPin; 2.0 to 2.59 Å depending on the DARPin.
Data set [3] deals with the molecule itself. As to the kind of experiment: crystal structure; SSDP_(1–86), tags removed; vapor diffusion at 19 °C; 2.4 Å.
Data set [4] concerns the molecule itself. The data set can be described thus: SEC-MALS; Lip-SSDP_(1–92) WT and mutants alone; Superdex-200 10/300, loaded at 2 mg/mL, PBS, 1 mM DTT; self-association of SSDP dimers into tetramers.
For data set [5], the target named is T1, MBP-LCCD_(Chip) (Drosophila, UniProt Q7KVG9-2 384-436).
T1 construct: Drosophila Chip, LCCD, residues 384-436; also called Chip-LCCD (residues 384 to 436); source: E. coli BL21(DE3)-RIL, bicistronic coexpression with Lip-SSDP_(1–92), purified (Ni-NTA, gel filtration)
T1 sequence (looked up): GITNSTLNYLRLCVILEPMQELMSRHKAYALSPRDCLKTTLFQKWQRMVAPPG
The data set can be described thus: SEC-MALS; MBP-LCCD_(Chip) (WT or Mα6) coexpressed with Lip-SSDP_(1–92) (WT, V65K, Mα3 or ML), purified; Superdex-200 10/300, 2 mg/mL, PBS, 1 mM DTT; PAGE of SEC fractions. The note with it: both partners purified.

Data set [6] deals with the molecule itself. The data set is described as above.

The molecule “Lip-SSDP_(1–92) Mα3 (F66E L69A Y70A) (from UniProt Q9VEB9 1-92) (domain or fragment)” gave a stoichiometry N in data set [1] of 2.

B1: DD (XLdb1 20-200) (domain or fragment, Xenopus laevis, UniProt P70060 20-200, looked up)
chain: GIGRHTPYGNQTDYRIFELNKRLQNWTEECDNLWWDAFTTEFFEDDAMLTITFCLEDGPKRYTIGRTLIPRYFRSIFEGGATELYYVLKHPKESFHNNFVSLDCDQCTMVTQHGKPMFTQVCVEGRLYLEFMFDDMMRIKTWHFSIRQHRELIPRSILAMHAQDPQMLDQLSKNITRCGLS
notes: Xenopus laevis Ldb1 (XLdb1), dimerization domain, residues 20-200; also called dimerization domain of XLdb1; source: E. coli BL21(DE3)-RIL, purified (Ni-NTA, gel filtration)
Take B1: in data set [2], the binding result is given as “binds”.

B2: SSDP_(1–86) (domain or fragment, Drosophila, UniProt Q9VEB9 1-86, looked up)
chain: MYGKSKTSAVPSDAQAREKLALYVYEYLLHVGAQKAAQTFLSEIRWEKNITLGEPPGFLHTWWCVFWDLYCAAPERRDQCDHSSEA
notes: also called SSDP-N; N-terminal dimerization domain of SSDP; source: E. coli BL21(DE3)-RIL, purified (Ni-NTA, gel filtration)
Take B2: the binding result in data set [3] is given as “binds”.

B3: Lip-SSDP_(1–92) (domain or fragment, Drosophila, UniProt Q9VEB9 1-92, looked up)
chain: MYGKSKTSAVPSDAQAREKLALYVYEYLLHVGAQKAAQTFLSEIRWEKNITLGEPPGFLHTWWCVFWDLYCAAPERRDQCDHSSEAKAFHDY
notes: Drosophila SSDP, residues 1-92; Obligate dimer; dimers and tetramers are seen by SEC-MALS; also called SSDP-N; WT Lip-SSDP_(1–92); source: E. coli BL21(DE3)-RIL, purified (Ni-NTA, gel filtration); alone or coexpressed with MBP-LCCD from a bicistronic vector
Turning to B3, the “stoichiometry N” value in data set [4] was 2 and 4; in data set [5], ~2 SSDP chains per LCCD (4:2, from the printed formula) and ~2 SSDP chains per LCCD.

B4: Lip-SSDP_(1–92) ML (I50E L52E) (domain or fragment, Drosophila, UniProt Q9VEB9 1-92, looked up)
chain: MYGKSKTSAVPSDAQAREKLALYVYEYLLHVGAQKAAQTFLSEIRWEKNETEGEPPGFLHTWWCVFWDLYCAAPERRDQCDHSSEAKAFHDY
notes: Drosophila SSDP, residues 1-92; also called SSDP ML; source: E. coli BL21(DE3)-RIL, purified (Ni-NTA, gel filtration); alone or coexpressed with MBP-LCCD
For the molecule B4, the binding result in data set [4] is recorded as “binds”. Besides, the “stoichiometry N” value in data set [5] came to 2 SSDP chains per LCCD.

B5: Lip-SSDP_(1–92) V65K (domain or fragment, Drosophila, UniProt Q9VEB9 1-92, looked up)
chain: MYGKSKTSAVPSDAQAREKLALYVYEYLLHVGAQKAAQTFLSEIRWEKNITLGEPPGFLHTWWCKFWDLYCAAPERRDQCDHSSEAKAFHDY
notes: Drosophila SSDP, residues 1-92; also called SSDP V65K; source: E. coli BL21(DE3)-RIL, purified (Ni-NTA, gel filtration); alone or coexpressed with MBP-LCCD
For the molecule B5, the “stoichiometry N” value in data set [6] is 4.
